Source: article PMC5603883, “Challenges to Design and Develop of DNA Aptamers for Protein Targets. II. Development of the Aptameric Affinity Ligands Specific to Human Plasma Coagulation Factor VIII Using SEC-SELEX”

Target: coagulation factor VIII (plasma-derived, Haemoctin 500) (Homo sapiens, UniProt P00451 20-2351)
Experiment: nitrocellulose filter binding, fluorescence of filtrate; 5 mM CaCl2, 5 mM MgCl2; Tris 40 mM, NaCl 117 mM, CaCl2 5 mM, MgCl2 5 mM, pH 7.4; selection at 4 °C, Kd assay temperature not stated; FVIII 20 ng (700 pM), DNA 0.5-700 nM
Details: protein: commercial; label: fluorescein via labelled reverse primer (S3) stated for the labelling PCR; the labelled strand is not explicitly specified; predicted three-branch stem-loop

Chain of coagulation factor VIII (plasma-derived, Haemoctin 500) (P00451 20-2351): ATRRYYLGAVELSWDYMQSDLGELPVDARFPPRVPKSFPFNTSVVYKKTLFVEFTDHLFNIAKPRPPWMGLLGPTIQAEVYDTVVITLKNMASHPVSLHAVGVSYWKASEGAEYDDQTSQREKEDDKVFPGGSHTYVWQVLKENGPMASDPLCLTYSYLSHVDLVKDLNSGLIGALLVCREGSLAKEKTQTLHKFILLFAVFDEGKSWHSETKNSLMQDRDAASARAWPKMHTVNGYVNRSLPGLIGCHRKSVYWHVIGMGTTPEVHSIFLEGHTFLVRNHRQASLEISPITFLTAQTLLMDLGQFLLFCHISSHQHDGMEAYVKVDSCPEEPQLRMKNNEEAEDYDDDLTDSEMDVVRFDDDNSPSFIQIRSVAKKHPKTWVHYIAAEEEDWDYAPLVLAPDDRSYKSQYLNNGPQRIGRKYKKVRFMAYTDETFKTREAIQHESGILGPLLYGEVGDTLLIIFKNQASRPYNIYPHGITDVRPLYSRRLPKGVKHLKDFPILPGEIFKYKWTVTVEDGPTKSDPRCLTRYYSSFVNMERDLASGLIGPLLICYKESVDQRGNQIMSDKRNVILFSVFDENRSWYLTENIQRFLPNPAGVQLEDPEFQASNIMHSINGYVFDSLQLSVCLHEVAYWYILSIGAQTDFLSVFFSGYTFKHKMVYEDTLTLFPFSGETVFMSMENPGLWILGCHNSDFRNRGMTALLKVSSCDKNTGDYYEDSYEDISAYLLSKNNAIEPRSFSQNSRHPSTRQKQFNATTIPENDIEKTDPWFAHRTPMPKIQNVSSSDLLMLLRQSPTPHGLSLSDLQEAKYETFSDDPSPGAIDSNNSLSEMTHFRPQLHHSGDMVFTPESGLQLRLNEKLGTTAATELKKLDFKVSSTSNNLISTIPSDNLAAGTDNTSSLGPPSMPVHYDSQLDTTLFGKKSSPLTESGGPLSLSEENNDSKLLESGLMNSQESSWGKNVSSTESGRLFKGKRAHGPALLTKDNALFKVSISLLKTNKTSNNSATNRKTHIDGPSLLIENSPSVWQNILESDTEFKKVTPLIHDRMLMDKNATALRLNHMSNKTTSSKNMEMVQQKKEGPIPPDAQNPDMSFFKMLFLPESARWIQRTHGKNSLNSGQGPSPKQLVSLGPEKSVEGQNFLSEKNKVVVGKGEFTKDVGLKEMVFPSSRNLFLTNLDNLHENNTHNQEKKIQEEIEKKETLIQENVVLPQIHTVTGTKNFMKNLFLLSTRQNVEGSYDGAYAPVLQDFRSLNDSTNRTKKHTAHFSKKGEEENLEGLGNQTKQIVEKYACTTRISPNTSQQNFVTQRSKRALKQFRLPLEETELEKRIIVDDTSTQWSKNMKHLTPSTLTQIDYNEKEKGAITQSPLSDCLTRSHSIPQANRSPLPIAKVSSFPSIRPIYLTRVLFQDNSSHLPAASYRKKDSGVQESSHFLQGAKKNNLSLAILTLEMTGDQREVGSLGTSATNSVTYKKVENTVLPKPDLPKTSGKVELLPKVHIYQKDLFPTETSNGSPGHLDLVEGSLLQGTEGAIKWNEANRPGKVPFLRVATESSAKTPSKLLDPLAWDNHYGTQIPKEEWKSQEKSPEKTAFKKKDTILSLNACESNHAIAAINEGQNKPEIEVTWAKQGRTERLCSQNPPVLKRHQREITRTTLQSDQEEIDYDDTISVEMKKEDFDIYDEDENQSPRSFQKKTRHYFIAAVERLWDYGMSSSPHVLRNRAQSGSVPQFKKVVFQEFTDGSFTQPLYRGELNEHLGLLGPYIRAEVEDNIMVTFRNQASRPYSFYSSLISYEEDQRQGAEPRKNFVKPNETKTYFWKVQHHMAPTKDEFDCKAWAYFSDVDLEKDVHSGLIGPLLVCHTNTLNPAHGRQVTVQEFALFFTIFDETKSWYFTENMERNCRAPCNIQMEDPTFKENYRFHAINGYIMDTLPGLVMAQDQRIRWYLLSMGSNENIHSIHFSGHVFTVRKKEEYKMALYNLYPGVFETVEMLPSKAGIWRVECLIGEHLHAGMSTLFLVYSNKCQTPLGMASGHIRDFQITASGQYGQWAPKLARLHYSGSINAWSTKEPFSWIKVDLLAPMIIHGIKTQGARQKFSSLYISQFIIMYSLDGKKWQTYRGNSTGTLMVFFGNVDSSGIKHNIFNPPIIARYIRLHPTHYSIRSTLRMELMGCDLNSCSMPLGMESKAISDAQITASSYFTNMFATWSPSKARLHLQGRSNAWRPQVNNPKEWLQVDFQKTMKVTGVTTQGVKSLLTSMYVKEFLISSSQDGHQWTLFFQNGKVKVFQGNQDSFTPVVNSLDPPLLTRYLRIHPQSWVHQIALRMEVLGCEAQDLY

B1: FVIII aptamer (full-length clone, 77 nt) (ssDNA)
DNA: GGTGTTACTCTTCATGTGGATCCGTACGTCCTGGGCTTCTTGATCGTCAGCCGAAGAATTCAGCACCCTAGCCTCGT
For B1, the Kd was 0.925 ± 0.0116 µM.
